According to patent publication US20110223168A1 (published 2011):
One block for each binder: values may come before it.

Experiments:
[1] = molecular target: T1, human TNFα (human, UniProt P01375 77-233); assay: TNF receptor assay: inhibition of TNF binding to TNFR1-Fc (ELISA)
T1 construct: Coated on plates, coupled to a CM5 chip, or added in solution (10 ng/ml) in the TNF receptor assay; the assay paragraphs often print only 'TNF'; also called TNF alpha; TAR1

[2] = molecular target: T1, human TNFα; assay: TNF receptor assay; fermenter-expressed, cation exchange FPLC pure dimer
[3] = molecular target: T2, human p55 TNF receptor (human, UniProt P19438 30-211, limits assumed); assay: selection from dAb libraries
T2 construct: Coupled to a CM5 chip or coated on immunotubes/plates; also called TNF receptor 1; TNFα receptor
T2 sequence (looked up): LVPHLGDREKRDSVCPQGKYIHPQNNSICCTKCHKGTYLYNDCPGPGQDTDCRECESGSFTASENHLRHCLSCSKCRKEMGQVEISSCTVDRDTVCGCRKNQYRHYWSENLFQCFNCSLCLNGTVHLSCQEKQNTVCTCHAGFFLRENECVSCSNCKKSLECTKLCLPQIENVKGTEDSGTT

[4] = molecular target: T3, hen egg lysozyme (HEL) (hen, UniProt P00698 19-147); assay: ELISA on HEL coated at 3 mg/ml, detection with 9e10 (anti-myc) and anti mouse IgG-HRP
T3 construct: also called hen egg white lysozyme

[5] = molecular target: T1, human TNFα; assay: TNF receptor assay: inhibition of TNF binding to TNFR1-Fc (ELISA); remark: listed apart in the source
[6] = molecular target: T1, human TNFα; assay: not stated; printed under 'Equilibrium dissocation constant (Kd = Koff/Kon)' in the data summary
[7] = molecular target: T1, human TNFα; assay: antigen ELISA
Protocol: (§1) Binding activity of dimeric recombinant proteins was compared to monomer by Protein A/L ELISA or by antigen ELISA. Briefly, a 96 well plate is coated with antigen or Protein A/L overnight at 4° C. The plate washed with 0.05% Tween-PBS, blocked for 2 hrs with 2% Tween-PBS. The sample is added to the plate incubated for 1 hr at room temperature. The plate is washed and incubated with the secondary reagent for 1 hr at room temperature. The plate is washed and developed with TMB substrate. Protein A/L-HRP or India-HRP was used as a secondary reagent.

[8] = molecular target: bovine serum albumin (BSA) (bovine, UniProt P02769 25-607); assay: antigen ELISA
Protocol: as §1

[9] = molecular target: T1, human TNFα; assay: TNF receptor assay: inhibition of TNF binding to TNFR1-Fc (ELISA); remark: listed apart in the source
[10] = molecular target: T3, hen egg lysozyme (HEL); assay: selection from dAb libraries

T1 sequence (P01375 77-233 limits assumed): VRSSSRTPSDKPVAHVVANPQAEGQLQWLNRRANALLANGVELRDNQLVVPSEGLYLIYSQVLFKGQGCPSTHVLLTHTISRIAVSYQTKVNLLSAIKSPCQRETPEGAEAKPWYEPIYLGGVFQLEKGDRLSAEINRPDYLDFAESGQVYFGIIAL
Chain of bovine serum albumin (BSA) (P02769 25-607 limits assumed): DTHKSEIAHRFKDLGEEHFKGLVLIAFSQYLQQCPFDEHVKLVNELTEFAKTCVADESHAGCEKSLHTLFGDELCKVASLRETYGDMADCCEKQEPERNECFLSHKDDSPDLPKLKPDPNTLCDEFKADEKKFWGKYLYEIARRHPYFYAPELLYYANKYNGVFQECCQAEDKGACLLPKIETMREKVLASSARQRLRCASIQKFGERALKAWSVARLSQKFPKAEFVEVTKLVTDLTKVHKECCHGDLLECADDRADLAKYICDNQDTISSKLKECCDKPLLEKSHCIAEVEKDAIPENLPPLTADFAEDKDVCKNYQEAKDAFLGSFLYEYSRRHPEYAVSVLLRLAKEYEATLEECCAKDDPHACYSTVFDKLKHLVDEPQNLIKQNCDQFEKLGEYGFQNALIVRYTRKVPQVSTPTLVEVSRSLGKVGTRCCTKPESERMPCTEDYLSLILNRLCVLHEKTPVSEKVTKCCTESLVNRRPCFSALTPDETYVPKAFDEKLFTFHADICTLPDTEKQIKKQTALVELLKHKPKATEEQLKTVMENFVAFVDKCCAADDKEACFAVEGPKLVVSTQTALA
T3 sequence (P00698 19-147): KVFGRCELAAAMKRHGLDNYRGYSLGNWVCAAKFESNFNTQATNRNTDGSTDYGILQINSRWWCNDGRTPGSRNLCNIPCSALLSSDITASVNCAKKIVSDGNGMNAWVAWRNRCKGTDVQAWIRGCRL

binding result [7]: binds
binding result [8]: no binding
B4: dAb1 monomer (other)
VL: DIQMTQSPSSLSASVGDRVTITCRASQSIYDALEWYQQKPGKAPKLLIYTASRLQSGVPSRFSGSGSGTDFTLTISSLQPEDFATYYCQQVMQRPVTFGQGTKVEIKR
notes: Vκ dAb monomer; also called partner dAb in TAR1-5d1, d5, d6

binding result [8]: no binding
B6: dAb3 monomer (other)
VL: DIQMTQSPSSLSASVGDRVTITCRASQSVKEFLWWYQQKPGKAPKLLIYMASNLQSGVPSRFSGSGSGTDFTLTISSLQPEDFATYYCQQKFKLPRTFGQGTKVEIKR
notes: Vκ dAb monomer; also called partner dAb in TAR1-5d4

binding result [10]: binds
B7: HEL4 (other)
VH: EVQLLESGGGLVQPGGSLRLSCAASGFRISDEDMGWVRQAPGKGLEWVSSIYGPSGSTYYADSVKGRFTISRDNSKNTLYLQMNSLRAEDTAVYYCASALEPLSEPLGFWGQGTLVTVSS
notes: VH dAb; also called HEL4 VH dAb; anti-hen egg white lysozyme dAb

More lines, now with the values behind:

B1: TAR1-5-19d4 (other)
chain: DIQMTQSPSSLSASVGDRVTITCRASQSIDSYLHWYQQKPGKAPKLLIYSASELQSGVPSRFSGSGSGTDFTLTISSLQPEDFATYYCQQVVWRPFTFGQGTKVEIKRGGGGSGGGGSGGGGSGGGGSGGGGSDIQMTQSPSSLSASVGDRVTITCRASQSVKEFLWWYQQKPGKAPKLLIYMASNLQSGVPSRFSGSGSGTDFTLTISSLQPEDFATYYCQQKFKLPRTFGQGTKVEIKR
notes: also called TAR1-5-19 dimer 4
IC50 [1]: 2 to 5 nM
IC50 [2]: 8 nM

B2: TAR2h-5 (other)
VH: EVQLLESGGGLVQPGGSLRLSCAASGFTFDLYNMFWVRQAPGKGLEWVSFISQTGRLTWYADSVKGRFTISRDNSKNTLYLQMNSLRAEDTAVYYCAKTLEDFDYWGQGTLVTVSS
notes: VH dAb against TNF receptor 1; also called TAR2-5; TAR2h-5 VH dAb
binding result [3]: binds
ELISA signal (background) [4]: 0.069

B3: TAR1-5-19 monomer (other)
VL: DIQMTQSPSSLSASVGDRVTITCRASQSIDSYLHWYQQKPGKAPKLLIYSASELQSGVPSRFSGSGSGTDFTLTISSLQPEDFATYYCQQVVWRPFTFGQGTKVEIKR
notes: also called TAR1-5-19 dAb
IC50 [5]: 30 nM
Kd [6]: 30 nM

B5: TAR1-5-19CYS trimer (TMEA) (other)
VL: DIQMTQSPSSLSASVGDRVTITCRASQSIDSYLHWYQQKPGKAPKLLIYSASELQSGVPSRFSGSGSGTDFTLTISSLQPEDFATYYCQQVVWRPFTFGQGTKVEIKRC
modifications: C-terminal Cys coupled to TMEA (Tris[2-maleimidoethyl]amine)
notes: also called TAR1-5-19 homotrimer; trimeric TAR1-5-19CYS
IC50 [9]: 0.3 nM
